Assay [1] has as its target T1, human TIGIT expressed on cells (human, UniProt Q495A1 22-244).
T1 construct: whole, on cells; on Jurkat E6.1 cells transduced with human TIGIT, on Promega TIGIT Effector cells or on human primary T cells; the assay field says which; also called hTIGIT; Jurkat-hTIGIT
T1 sequence (looked up): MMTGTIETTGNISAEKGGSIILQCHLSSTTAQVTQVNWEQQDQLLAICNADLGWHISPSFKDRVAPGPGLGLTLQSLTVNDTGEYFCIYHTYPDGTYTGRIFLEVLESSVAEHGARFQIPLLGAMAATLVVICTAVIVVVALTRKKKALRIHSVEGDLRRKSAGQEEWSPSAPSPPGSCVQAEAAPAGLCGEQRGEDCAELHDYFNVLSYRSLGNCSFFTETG
The experiment in a line: flow cytometry, AF647-32959 on Jurkat-hTIGIT; competitor 31282 at 0.08 nM. How it is done:
(§1) Geometric mean fluorescence intensity was analysed using LSR BD Fortessa. Cell binding was recorded as the median florescence intensity of AF647.
Background: A flow cytometer gives signals particle by particle.

Assay [2] has as its target T1, human TIGIT expressed on cells. As to the kind of experiment: flow cytometry, AF647-32959 on Jurkat-hTIGIT; competitor 31282 at 0.16 nM. As to the method: as §1
Assay [3] has the same target. As to the kind of experiment: flow cytometry, AF647-32959 on Jurkat-hTIGIT; competitor 31282 at 8 nM. How it is done:
as §1

Assay [4] has the same target. As to the kind of experiment: flow cytometry, AF647-32959 on Jurkat-hTIGIT; competitor 31282 at 0 nM. As to the method:
as §1

The target is the same in assay [5]. The experiment in a line: flow cytometry, AF647-32959 on Jurkat-hTIGIT; competitor 31282 at 0.8 nM. As to the method:
as §1

Assay [6] shares this target. The experiment in a line: flow cytometry, cell binding Jurkat human TIGIT.

By EC50 is commonly meant the concentration giving half of the maximal effect.

B1: anti-TIGIT antibody clone 32959 (human IgG1) (antibody, V domains shown)
VH: QVQLVQSGAEVKKPGSSVKVSCKASGGTFSSYLISWVRQAPGQGLEWMGGIYPIFATANYAQKFQGRVTITADESTSTAYMELSSLRSEDTAVYYCAREAQSYRVPFDIWGQGTMVTVSS
VL: EIVMTQSPATLSVSPGERATLSCRASQSVSSNLAWYQQKPGQAPRLLIYGASTRATGIPARFSGSGSGTEFTLTISSLQSEDFAVYYCQQYAIWPPFTFGGGTKVEIK
modifications: The antibody was directly coupled to the dye AF647 in Example 24; the attachment sites are not stated.
notes: human IgG1 made in HEK cells
In the case of B1, the EC50 in assay [1] stood at 0.33 nM; in assay [2], 0.37 nM; in assay [3], 0.39 nM; in assay [4] it was 0.22 nM; in assay [5], 0.49 nM. For the same molecule, the “FON (Fold Over Negative)” value in assay [6] turned out to be 588 fold.

Values taken from patent US20200407445A1 (ITEOS THERAPEUTICS, published 2020).
